For one molecule, Classification results are on record in patent US20050282743A1, “Molecular interactions in cells” (Arbor Vita Corporation, priority 2001, published 2005).

Common to all, as to test: G' assay
The target of test [1] is GST-BAI-1 Associated Protein PDZ domain 2 (Mus musculus (Mouse)), Q6RHR9.
For test [2], the target named is GST-BAI-1 Associated Protein PDZ domain 4 (Homo sapiens (Human)), Q96QZ7.
In test [3] the target is T1, GST-KIAA0303 PDZ domain 1 (Homo sapiens (Human)), O15021.
T1 chain: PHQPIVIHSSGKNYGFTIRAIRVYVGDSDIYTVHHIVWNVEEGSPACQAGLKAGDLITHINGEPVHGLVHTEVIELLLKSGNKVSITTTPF

Test [4] deals with GST-KIAA807 [GST: P08515].
Test [5] has as its target GST-PSD95 PDZ domains 1, 2, 3 (Homo sapiens), P78352.
Test [6] has as its target T2, GST-TIP1 PDZ domain 1 (Table 9 insert) (Homo sapiens (Human)), O14907.
T2 chain: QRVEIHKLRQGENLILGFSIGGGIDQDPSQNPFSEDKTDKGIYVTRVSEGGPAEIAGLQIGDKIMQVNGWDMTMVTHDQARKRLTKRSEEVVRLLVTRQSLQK
Also: key of the grades not given here.

Chain of GST-PSD95 PDZ domains 1, 2, 3 (Homo sapiens), P78352 (P78352 62-395): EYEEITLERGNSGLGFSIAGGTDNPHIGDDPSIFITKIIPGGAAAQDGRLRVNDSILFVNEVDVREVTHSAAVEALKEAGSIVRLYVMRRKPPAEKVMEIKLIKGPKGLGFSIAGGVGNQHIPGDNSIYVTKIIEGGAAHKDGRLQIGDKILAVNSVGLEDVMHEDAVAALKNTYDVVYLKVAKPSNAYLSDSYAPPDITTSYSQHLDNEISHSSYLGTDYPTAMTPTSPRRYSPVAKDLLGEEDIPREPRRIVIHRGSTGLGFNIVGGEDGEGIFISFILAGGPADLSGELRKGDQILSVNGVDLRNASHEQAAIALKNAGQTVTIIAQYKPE
Chain of GST-KIAA807 [GST: P08515] (P08515 whole entry, the tested form may be a part): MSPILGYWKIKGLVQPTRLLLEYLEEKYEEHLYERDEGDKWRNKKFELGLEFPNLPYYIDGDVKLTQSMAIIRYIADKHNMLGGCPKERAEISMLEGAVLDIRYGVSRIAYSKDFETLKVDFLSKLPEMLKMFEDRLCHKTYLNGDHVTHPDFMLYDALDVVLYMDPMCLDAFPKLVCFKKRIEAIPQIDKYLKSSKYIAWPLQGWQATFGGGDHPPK
Chain of GST-BAI-1 Associated Protein PDZ domain 2 (Mus musculus (Mouse)), Q6RHR9 (Q6RHR9 455-558): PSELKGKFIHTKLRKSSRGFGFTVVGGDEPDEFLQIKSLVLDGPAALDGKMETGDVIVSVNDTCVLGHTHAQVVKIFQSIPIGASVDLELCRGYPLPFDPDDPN
Chain of GST-BAI-1 Associated Protein PDZ domain 4 (Homo sapiens (Human)), Q96QZ7 (Q96QZ7 other isoform, or with tags, fused parts or gaps): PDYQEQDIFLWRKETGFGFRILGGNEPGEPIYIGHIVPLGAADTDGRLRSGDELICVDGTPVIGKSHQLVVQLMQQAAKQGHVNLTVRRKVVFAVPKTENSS

Consider QDFRRAFRRILARPWTQTAW (modifications not checked) [alpha-2B Adrenergic receptor], for which the Classification in test [1] stood at 4 A450 class; in test [2] it was 5 A450 class; in test [3], 4 A450 class; in test [4], 4 A450 class; in test [5] it was 5 A450 class; in test [6], 5 A450 class.
